Patent US12692294B2, “Engineered NRG-1 variants with improved selectivity toward ErbB4 but not against ErbB3” (Amgen Inc., priority 2021, dated 2026)

What was measured:
ErbB3 = target: T1, ErbB3 (Rattus norvegicus, UniProt Q62799); experiment: In vitro phosphorylation of Akt in rat Schwann cells; type: cell-based; details: Akt (Serine 473) phosphorylation, 15 minutes treatment; for EC50: read-out: Schwann cells (SC) (ErbB3) Avg EC50
T1 construct: forming the ErbB2/ErbB4 complex in cardiomyocytes and the ErbB2/ErbB3 complex in Schwann cells; endogenous in cells; host or cells: rat Schwann cells
T1 sequence (Q62799 20-1339): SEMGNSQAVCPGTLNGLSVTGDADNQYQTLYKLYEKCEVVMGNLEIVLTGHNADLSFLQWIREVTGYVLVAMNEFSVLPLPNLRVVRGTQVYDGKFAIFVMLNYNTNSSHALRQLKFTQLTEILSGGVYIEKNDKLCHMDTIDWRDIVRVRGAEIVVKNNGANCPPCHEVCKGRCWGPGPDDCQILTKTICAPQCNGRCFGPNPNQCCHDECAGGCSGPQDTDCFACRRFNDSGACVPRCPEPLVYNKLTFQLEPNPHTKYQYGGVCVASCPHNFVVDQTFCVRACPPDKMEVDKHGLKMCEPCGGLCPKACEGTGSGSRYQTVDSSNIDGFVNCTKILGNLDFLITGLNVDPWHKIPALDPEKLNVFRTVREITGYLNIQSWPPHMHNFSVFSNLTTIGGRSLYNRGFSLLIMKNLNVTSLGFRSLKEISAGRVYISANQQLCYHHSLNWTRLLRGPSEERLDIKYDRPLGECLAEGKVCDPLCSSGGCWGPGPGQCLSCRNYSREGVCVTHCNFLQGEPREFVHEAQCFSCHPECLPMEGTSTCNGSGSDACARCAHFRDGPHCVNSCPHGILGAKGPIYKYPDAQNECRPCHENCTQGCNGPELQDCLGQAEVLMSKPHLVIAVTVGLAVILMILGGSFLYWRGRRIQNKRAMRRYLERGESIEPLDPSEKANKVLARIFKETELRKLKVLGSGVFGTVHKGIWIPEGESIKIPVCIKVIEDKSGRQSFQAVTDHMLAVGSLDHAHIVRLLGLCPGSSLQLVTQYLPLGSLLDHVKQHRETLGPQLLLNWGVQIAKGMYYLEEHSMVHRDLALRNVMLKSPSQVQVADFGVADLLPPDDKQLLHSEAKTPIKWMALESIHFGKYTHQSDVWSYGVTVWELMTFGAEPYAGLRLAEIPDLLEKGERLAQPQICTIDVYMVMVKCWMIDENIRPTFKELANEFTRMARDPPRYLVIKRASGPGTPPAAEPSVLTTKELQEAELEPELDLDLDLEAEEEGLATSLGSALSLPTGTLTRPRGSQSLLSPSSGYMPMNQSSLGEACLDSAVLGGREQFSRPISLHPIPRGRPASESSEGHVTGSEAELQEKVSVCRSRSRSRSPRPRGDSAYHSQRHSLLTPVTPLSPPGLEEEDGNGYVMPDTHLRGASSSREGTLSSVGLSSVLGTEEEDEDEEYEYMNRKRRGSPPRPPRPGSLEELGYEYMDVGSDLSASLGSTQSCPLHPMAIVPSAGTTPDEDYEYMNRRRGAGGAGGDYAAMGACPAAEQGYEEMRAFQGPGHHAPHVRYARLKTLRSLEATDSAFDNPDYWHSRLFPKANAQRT
T1 sequence (P06494 23-1257 partner): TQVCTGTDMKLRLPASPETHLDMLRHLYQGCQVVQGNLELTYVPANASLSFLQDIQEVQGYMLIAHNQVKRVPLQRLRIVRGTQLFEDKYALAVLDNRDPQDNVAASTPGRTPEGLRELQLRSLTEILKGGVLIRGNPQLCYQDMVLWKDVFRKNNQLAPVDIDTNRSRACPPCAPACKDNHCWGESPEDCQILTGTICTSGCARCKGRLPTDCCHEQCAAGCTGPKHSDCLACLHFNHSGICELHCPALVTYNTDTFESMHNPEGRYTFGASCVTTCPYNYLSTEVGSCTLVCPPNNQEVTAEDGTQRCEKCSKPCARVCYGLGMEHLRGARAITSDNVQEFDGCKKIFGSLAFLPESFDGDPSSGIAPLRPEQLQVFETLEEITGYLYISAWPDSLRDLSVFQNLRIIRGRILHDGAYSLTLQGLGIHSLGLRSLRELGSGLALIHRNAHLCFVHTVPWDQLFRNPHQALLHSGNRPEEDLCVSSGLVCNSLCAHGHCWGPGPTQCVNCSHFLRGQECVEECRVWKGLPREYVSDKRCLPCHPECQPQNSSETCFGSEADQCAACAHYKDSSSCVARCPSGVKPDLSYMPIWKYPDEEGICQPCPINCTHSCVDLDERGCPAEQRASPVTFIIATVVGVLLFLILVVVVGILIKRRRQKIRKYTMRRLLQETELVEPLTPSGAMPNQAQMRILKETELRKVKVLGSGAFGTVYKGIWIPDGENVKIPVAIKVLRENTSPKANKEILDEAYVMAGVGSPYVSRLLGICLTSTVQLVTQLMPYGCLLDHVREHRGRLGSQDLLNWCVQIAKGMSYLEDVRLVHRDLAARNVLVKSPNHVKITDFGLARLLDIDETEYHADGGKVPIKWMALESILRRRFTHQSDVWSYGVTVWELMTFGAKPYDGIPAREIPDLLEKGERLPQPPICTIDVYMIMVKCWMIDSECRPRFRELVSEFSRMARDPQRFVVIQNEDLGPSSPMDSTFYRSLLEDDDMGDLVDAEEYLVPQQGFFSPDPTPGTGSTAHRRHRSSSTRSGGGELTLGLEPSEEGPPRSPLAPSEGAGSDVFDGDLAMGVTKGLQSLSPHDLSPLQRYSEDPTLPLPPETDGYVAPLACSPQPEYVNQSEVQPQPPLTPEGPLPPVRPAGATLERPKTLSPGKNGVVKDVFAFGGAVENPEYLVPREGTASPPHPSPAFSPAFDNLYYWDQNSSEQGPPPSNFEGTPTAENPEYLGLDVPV
Description: (§1) In Vitro Phosphorylation of Akt in Neonatal Rat Cardiomyocytes and Rat Schwann Cells by Neuregulin Variants
(§2) Specificity of neuregulin variants towards cardiomyocytes (ErbB4) versus Schwann cells (ErbB3) was tested by measuring Akt activity generated by formation of the ErbB2/ErbB4 and ErbB2/ErbB3 complexes. Upon activation by neuregulin, the ErbB4 and ErbB3 receptors dimerize preferentially with the ErbB2 co-receptor, forming the ErbB2/ErbB4 complex in cardiomyocytes and the ErbB2/ErbB3 complex in Schwann cells, both of which signal through the Akt pathway. Neonatal rat cardiomyocytes were isolated from hearts of Sprague Dawley rat pups at 0 to 4 days old according to manufacturer's protocol using the Neomyt kit and plated on Surecoat plates in NS media containing serum (all from Cellultron Life Technologies, Baltimore, MD). Rat Schwann cells were plated in Poly-D-Lysine coated plates with Dulbecco's modified Eagle's media (DMEM) supplemented with fetal bovine serum (Thermo Fisher) and forskolin (Millipore Sigma).
(§3) After a 24-hour incubation in a humidified incubator maintained at 37° C. and 5% CO2, cardiomyocytes and Schwann cells were washed with serum free media and incubated an additional 16 hours in DMEM supplemented with bovine serum albumin (Sigma). Both cell lines were then treated with titrations of the neuregulin variant molecules for 15 minutes, upon which cells were lysed in lysis buffer (Meso Scale Discovery (MSD)). For detection of Akt phosphorylation, lysates were added to the Multi-Spot 96-Well 4-Spot Phospho (Serine 473)/Total Akt plates (MSD), incubated according to the manufacturer's protocol and read in the SECTOR Imager 6000 (MSD). For both cell assays, the percent phosphorylation of Akt was calculated by multiplying the phospho Akt signal by 2, then dividing by the phospho Akt signal added to the total Akt signal and then multiplying by 100. The phosphorylation of Akt data points were fitted using a log (agonist) versus response, variable slope (4 parameters) analysis in GraphPad Prism to generate EC50 curves. The CM % agonism reflect the top value of the data points.

ErbB4 = target: T2, ErbB4 (Rattus norvegicus, UniProt Q62956); experiment: In vitro phosphorylation of Akt in neonatal rat cardiomyocytes; type: cell-based; details: for EC50: Akt (Serine 473) phosphorylation, neonatal rat cardiomyocytes, 15 minutes treatment, read-out: Cardiomyocyte (CM) (ErbB4) Avg EC50; for Selectivity SC/CM: ratio of EC50s Schwann cells/cardiomyocytes; for CM % Agonism AVG: top value of the Akt phosphorylation data points in cardiomyocytes, wild-type control 100
T2 construct: forming the ErbB2/ErbB4 complex in cardiomyocytes and the ErbB2/ErbB3 complex in Schwann cells; endogenous in cells; host or cells: primary neonatal rat cardiomyocytes (Sprague Dawley pups, 0 to 4 days old)
T2 sequence (Q62956 26-1308): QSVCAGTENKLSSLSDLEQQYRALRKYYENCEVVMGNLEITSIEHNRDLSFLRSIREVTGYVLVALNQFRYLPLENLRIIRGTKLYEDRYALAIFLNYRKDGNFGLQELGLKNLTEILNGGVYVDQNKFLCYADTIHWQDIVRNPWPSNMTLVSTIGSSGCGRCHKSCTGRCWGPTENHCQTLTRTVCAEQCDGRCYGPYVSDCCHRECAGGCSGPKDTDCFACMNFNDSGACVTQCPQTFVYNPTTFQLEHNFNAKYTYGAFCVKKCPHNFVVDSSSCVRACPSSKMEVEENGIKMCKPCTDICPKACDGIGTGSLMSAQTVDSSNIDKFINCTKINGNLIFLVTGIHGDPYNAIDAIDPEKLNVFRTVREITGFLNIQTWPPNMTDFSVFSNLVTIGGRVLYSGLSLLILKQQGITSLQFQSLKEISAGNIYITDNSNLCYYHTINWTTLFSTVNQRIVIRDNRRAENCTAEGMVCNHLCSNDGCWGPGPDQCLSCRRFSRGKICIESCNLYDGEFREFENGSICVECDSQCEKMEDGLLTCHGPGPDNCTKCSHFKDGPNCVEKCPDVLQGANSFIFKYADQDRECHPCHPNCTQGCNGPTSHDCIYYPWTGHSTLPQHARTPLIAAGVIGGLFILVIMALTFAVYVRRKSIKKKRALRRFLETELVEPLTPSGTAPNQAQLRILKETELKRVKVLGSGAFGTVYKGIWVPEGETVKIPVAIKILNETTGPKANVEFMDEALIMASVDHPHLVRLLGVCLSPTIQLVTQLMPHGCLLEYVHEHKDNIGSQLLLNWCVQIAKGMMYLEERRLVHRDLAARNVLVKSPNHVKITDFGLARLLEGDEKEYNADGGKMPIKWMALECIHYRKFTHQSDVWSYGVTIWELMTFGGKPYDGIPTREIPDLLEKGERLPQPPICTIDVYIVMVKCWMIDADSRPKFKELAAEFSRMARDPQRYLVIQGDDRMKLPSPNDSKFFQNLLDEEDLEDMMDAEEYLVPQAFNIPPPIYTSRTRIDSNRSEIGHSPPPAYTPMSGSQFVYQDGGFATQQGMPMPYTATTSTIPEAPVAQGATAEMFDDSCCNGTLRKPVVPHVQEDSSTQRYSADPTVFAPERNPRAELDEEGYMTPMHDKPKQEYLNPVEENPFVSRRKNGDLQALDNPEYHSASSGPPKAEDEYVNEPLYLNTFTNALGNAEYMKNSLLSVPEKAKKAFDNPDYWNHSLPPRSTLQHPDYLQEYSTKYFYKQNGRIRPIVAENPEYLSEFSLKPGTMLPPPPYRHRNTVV
T2 sequence (P06494 23-1257 partner): as the sequence (P06494 23-1257 partner) above
Description: as §1, §2, §3

B1: huNRG1(S177-F229)(NRGE1C) 6xHis: 6xHis-tagged NRG1 variant SEQ ID NO:117 (protein)
chain: SHLVKCGEKHKSFCVNGGECFMIEGPSNPSRYLCKCPNEFTGDRCQEDFMASFGGGGEGGGGAGGGGHHHHHH
modifications: 6xHis tag; huNRG1(S177-F229)(NRGE1C) 6xHis
EC50 (ErbB3): 10000 nM | EC50 (ErbB4): 1.44 nM | Selectivity SC/CM (ErbB4): >10000 | CM % Agonism AVG (ErbB4): 106%

B2: huNRG1(S177-F229)(NRGE1D) (E47S_D48S_F49E_M50L) 6xHis: 6xHis-tagged NRG1 variant SEQ ID NO:128 (protein)
chain: SHLVKCGESHKSFCVNGGECYMVEGSSIPSRYLCKCPNEFTGDRCQSSELASFGGGGEGGGGAGGGGHHHHHH
modifications: 6xHis tag; huNRG1(S177-F229)(NRGE1D) (E47S_D48S_F49E_M50L) 6xHis
EC50 (ErbB3): 10000 nM | EC50 (ErbB4): 0.557 nM | Selectivity SC/CM (ErbB4): >10000 | CM % Agonism AVG (ErbB4): 96.05%

B3: huNRG1(S177-F229)(NRGE1D) (E47K_D48L_F49D_M50I) 6xHis: 6xHis-tagged NRG1 variant SEQ ID NO:127 (protein)
chain: SHLVKCGESHKSFCVNGGECYMVEGSSIPSRYLCKCPNEFTGDRCQKLDIASFGGGGEGGGGAGGGGHHHHHH
modifications: 6xHis tag; huNRG1(S177-F229)(NRGE1D) (E47K_D48L_F49D_M50I) 6xHis
EC50 (ErbB3): 17.2 nM | EC50 (ErbB4): 0.311 nM | Selectivity SC/CM (ErbB4): 55.4019 | CM % Agonism AVG (ErbB4): 91.65%

B4: huNRG1(S177-F229)(NRGE1D) (E47T_D48S_F49L_M50L) 6xHis: 6xHis-tagged NRG1 variant SEQ ID NO:129 (protein)
chain: SHLVKCGESHKSFCVNGGECYMVEGSSIPSRYLCKCPNEFTGDRCQTSLLASFGGGGEGGGGAGGGGHHHHHH
modifications: 6xHis tag; huNRG1(S177-F229)(NRGE1D) (E47T_D48S_F49L_M50L) 6xHis
EC50 (ErbB3): 10000 nM | EC50 (ErbB4): 0.33 nM | Selectivity SC/CM (ErbB4): >10000 | CM % Agonism AVG (ErbB4): 99.83%

B5: huNRG1(S177-F229)(NRGE1C) (E47A_D48P_F49H_M50I) 6xHis: 6xHis-tagged NRG1 variant SEQ ID NO:119 (protein)
chain: SHLVKCGEKHKSFCVNGGECFMIEGPSNPSRYLCKCPNEFTGDRCQAPHIASFGGGGEGGGGAGGGGHHHHHH
modifications: 6xHis tag; huNRG1(S177-F229)(NRGE1C) (E47A_D48P_F49H_M50I) 6xHis
EC50 (ErbB3): 10000 nM | EC50 (ErbB4): 1.1 nM | Selectivity SC/CM (ErbB4): >10000 | CM % Agonism AVG (ErbB4): 96.47%

B6: huNRG1(S177-F229)(NRGE1C) (E47S_D48T_F49R_M50V) 6xHis: 6xHis-tagged NRG1 variant SEQ ID NO:123 (protein)
chain: SHLVKCGEKHKSFCVNGGECFMIEGPSNPSRYLCKCPNEFTGDRCQSTRVASFGGGGEGGGGAGGGGHHHHHH
modifications: 6xHis tag; huNRG1(S177-F229)(NRGE1C) (E47S_D48T_F49R_M50V) 6xHis
EC50 (ErbB3): 10000 nM | EC50 (ErbB4): 0.58 nM | Selectivity SC/CM (ErbB4): >10000 | CM % Agonism AVG (ErbB4): 87.47%

B7: huNRG1(S177-F229)(NRGE1D) 6xHis: 6xHis-tagged NRG1 variant SEQ ID NO:126 (protein)
chain: SHLVKCGESHKSFCVNGGECYMVEGSSIPSRYLCKCPNEFTGDRCQEDFMASFGGGGEGGGGAGGGGHHHHHH
modifications: 6xHis tag; huNRG1(S177-F229)(NRGE1D) 6xHis
EC50 (ErbB3): 10000 nM | EC50 (ErbB4): 0.39 nM | Selectivity SC/CM (ErbB4): >10000 | CM % Agonism AVG (ErbB4): 90.65%

B8: huNRG1(S177-F229)(NRGE1C) (E47K_D48T_F49S_M50L) 6xHis: 6xHis-tagged NRG1 variant SEQ ID NO:120 (protein)
chain: SHLVKCGEKHKSFCVNGGECFMIEGPSNPSRYLCKCPNEFTGDRCQKTSLASFGGGGEGGGGAGGGGHHHHHH
modifications: 6xHis tag; huNRG1(S177-F229)(NRGE1C) (E47K_D48T_F49S_M50L) 6xHis
EC50 (ErbB3): 10000 nM | EC50 (ErbB4): 0.825 nM | Selectivity SC/CM (ErbB4): >10000 | CM % Agonism AVG (ErbB4): 91.82%

B9: huNRG1(S177-F229)(NRGE1C) (E47S_D48A_F49L_M50T) 6xHis: 6xHis-tagged NRG1 variant SEQ ID NO:122; ErbB4 selective agonist without Fc of Example 3 (protein)
chain: SHLVKCGEKHKSFCVNGGECFMIEGPSNPSRYLCKCPNEFTGDRCQSALTASFGGGGEGGGGAGGGGHHHHHH
modifications: 6xHis tag; huNRG1(S177-F229)(NRGE1C) (E47S_D48A_F49L_M50T) 6xHis
EC50 (ErbB3): 10000 nM | EC50 (ErbB4): 0.695 nM | Selectivity SC/CM (ErbB4): >10000 | CM % Agonism AVG (ErbB4): 85.89%

B10: huNRG1(S177-F229)(NRGE1C) (D48T_F49Q_M50I) 6xHis: 6xHis-tagged NRG1 variant SEQ ID NO:118 (protein)
chain: SHLVKCGEKHKSFCVNGGECFMIEGPSNPSRYLCKCPNEFTGDRCQETQIASFGGGGEGGGGAGGGGHHHHHH
modifications: 6xHis tag; huNRG1(S177-F229)(NRGE1C) (D48T_F49Q_M50I) 6xHis
EC50 (ErbB3): 10000 nM | EC50 (ErbB4): 0.712 nM | Selectivity SC/CM (ErbB4): >10000 | CM % Agonism AVG (ErbB4): 105.7%

B11: :huNRG1(S177-F229)(NRGE1D)::2X(G4E)G4::huFcSEFL2v131(+): Fc fusion of NRG1 variant SEQ ID NO:126 (protein)
chain: SHLVKCGESHKSFCVNGGECYMVEGSSIPSRYLCKCPNEFTGDRCQEDFMASFGGGGEGGGGEGGGGDKTHTCPPCPAPELLGGPSVFLFPPKPKDTLMISRTPEVTCVVVDVSHEDPEVKFNWYVDGVEVHNAKTKPCEEQYGSTYRCVSVLTVLHQDWLNGKEYKCKVSNKALPAPIEKTISKAKGQPREPQVYTLPPSREKMTKNQVSLTCLVKGFYPSDIAVEWESNGQPENNYKTTPPVLKSDGSFFLYSKLTVDKSRWQQGNVFSCSVMHEALHNHYTQKSLSLSPGKDKTHTCPPCPAPELLGGPSVFLFPPKPKDTLMISRTPEVTCVVVDVSHEDPEVKFNWYVDGVEVHNAKTKPCEEQYGSTYRCVSVLTVLHQDWLNGKEYKCKVSNKALPAPIEKTISKAKGQPREPQVYTLPPSREEMTENQVSLTCLVEGFYPSDIAVEWESNGQPENNYETTPPVLDSDGSFFLYSDLTVDKSRWQQGNVFSCSVMHEALHNHYTQKSLSLSPGK
modifications: huNRG1(S177-F229)(NRGE1D) ::2X(G4E)G4::huFcSEFL2v131(+)
Schwann cells (SC) (ErbB3) Avg EC50 (M) (ErbB3): inactive | EC50 (ErbB4): 1.9 nM | Selectivity SC/CM (ErbB4): >10000 | CM % Agonism AVG (ErbB4): 91.9%

B12: huNRG1(S177-S228)(NRGE1C)::3x(G4Q)::huFcSEFL2 (Pb): Fc fusion of NRG1 variant SEQ ID NO:116 (protein)
chain: STYRCVSVLTVLHQDWLNGKEYKCKVSNKALPAPIEKTISKAKGQPREPQVYTLPPSREEMTKNQVSLTCLVKGFYPSDIAVEWESNGQPENNYKTTPPVLDSDGSFFLYSKLTVDKSRWQQGNVFSCSVMHEALHNHYTQKSLSLSPGK
modifications: huNRG1(S177-S228)(NRGE1C)::3x(G4Q)::huFcSEFL2 (Pb)
EC50 (ErbB3): 783 nM | EC50 (ErbB4): 14.8 nM | Selectivity SC/CM (ErbB4): 53

B13: huNRG1(S177-S228)(wt)::3x(G4Q)::huFcSEFL2 (Pb): Fc fusion of wild-type NRG1 fragment S177-S228 (protein)
chain: STYRCVSVLTVLHQDWLNGKEYKCKVSNKALPAPIEKTISKAKGQPREPQVYTLPPSREEMTKNQVSLTCLVKGFYPSDIAVEWESNGQPENNYKTTPPVLDSDGSFFLYSKLTVDKSRWQQGNVFSCSVMHEALHNHYTQKSLSLSPGK
modifications: huNRG1(S177-S228)(wt)::3x(G4Q)::huFcSEFL2 (Pb)
EC50 (ErbB3): 0.07 nM | EC50 (ErbB4): 2.6 nM | Selectivity SC/CM (ErbB4): 0.03
